Assay results as given in patent publication US20240132578A1.

Assays:
Test in all cases: cell-based or functional assay
[1] = molecular target: HIV-1 Env of isolate 6535.3 (subtype B) (HIV-1)
[2] = molecular target: HIV-1 Env of isolate 92BR020 (subtype B) (HIV-1)
[3] = molecular target: HIV-1 Env of isolate 93TH305 (subtype B) (HIV-1)
[4] = molecular target: HIV-1 Env of isolate APV 13 (subtype B) (HIV-1)
[5] = molecular target: HIV-1 Env of isolate APV 6 (subtype B) (HIV-1)
[6] = molecular target: HIV-1 Env of isolate APV_17 (subtype B) (HIV-1)
[7] = molecular target: HIV-1 Env of isolate MGRM-G-001 (subtype G), on pseudovirus (HIV-1)
[8] = molecular target: HIV-1 Env of isolate MGRM-G-004 (subtype G), on pseudovirus (HIV-1)
[9] = molecular target: HIV-1 Env of isolate MGRM-G-006 (subtype G), on pseudovirus (HIV-1)
[10] = molecular target: HIV-1 Env of isolate MGRM-G-009 (subtype G), on pseudovirus (HIV-1)
[11] = molecular target: HIV-1 Env of isolate MGRM-G-011 (subtype G), on pseudovirus (HIV-1)
[12] = molecular target: HIV-1 Env of isolate MGRM-G-013 (subtype G), on pseudovirus (HIV-1)
[13] = molecular target: HIV-1 Env of isolate MGRM-G-014 (subtype G), on pseudovirus (HIV-1)
[14] = molecular target: HIV-1 Env of isolate MGRM-G-015 (subtype G), on pseudovirus (HIV-1)
[15] = molecular target: HIV-1 Env of isolate MGRM-G-016 (subtype G), on pseudovirus (HIV-1)
[16] = molecular target: HIV-1 Env of isolate MGRM-G-017 (subtype G), on pseudovirus (HIV-1)
[17] = molecular target: HIV-1 Env of isolate MGRM-G-019 (subtype G), on pseudovirus (HIV-1)
[18] = molecular target: HIV-1 Env of isolate MGRM-G-024 (subtype G), on pseudovirus (HIV-1)
[19] = molecular target: HIV-1 Env of isolate MGRM-G-025 (subtype G), on pseudovirus (HIV-1)
[20] = molecular target: HIV-1 Env of isolate MGRM-G-027 (subtype G), on pseudovirus (HIV-1)
[21] = molecular target: HIV-1 Env of isolate MGRM-G-028 (subtype G), on pseudovirus (HIV-1)
[22] = molecular target: HIV-1 JR-CSF Env R480A (HIV-1 JR-CSF) (UniProt P20871)
[23] = molecular target: aMLV envelope, on pseudovirus (negative control)
[24] = molecular target: HIV-1 JR-CSF Env G471A (HIV-1 JR-CSF) (UniProt P20871)

Binder | IC50 (µg/mL), pseudovirus neutralization [1] [µg/mL] | IC50 (µg/mL), pseudovirus neutralization [2] [µg/mL] | IC50 (µg/mL), pseudovirus neutralization [3] [µg/mL] | IC50 (µg/mL), pseudovirus neutralization [4] [µg/mL] | IC50 (µg/mL), pseudovirus neutralization [5] [µg/mL] | IC50 (µg/mL), pseudovirus neutralization [6] [µg/mL] | IC50 (µg/mL), neutralization of pseudovirus [7] [µg/mL] | IC50 (µg/mL), neutralization of pseudovirus [8] [µg/mL] | IC50 (µg/mL), neutralization of pseudovirus [9] [µg/mL] | IC50 (µg/mL), neutralization of pseudovirus [10] [µg/mL] | IC50 (µg/mL), neutralization of pseudovirus [11] [µg/mL] | IC50 (µg/mL), neutralization of pseudovirus [12] [µg/mL] | IC50 (µg/mL), neutralization of pseudovirus [13] [µg/mL] | IC50 (µg/mL), neutralization of pseudovirus [14] [µg/mL] | IC50 (µg/mL), neutralization of pseudovirus [15] [µg/mL] | IC50 (µg/mL), neutralization of pseudovirus [16] [µg/mL] | IC50 (µg/mL), neutralization of pseudovirus [17] [µg/mL] | IC50 (µg/mL), neutralization of pseudovirus [18] [µg/mL] | IC50 (µg/mL), neutralization of pseudovirus [19] [µg/mL] | IC50 (µg/mL), neutralization of pseudovirus [20] [µg/mL] | other results
PGT-128 (antibody, V domains shown) VH: QPQLQESGPTLVEASETLSLTCAVSGDSTAACNSFWGWVRQPPGKGLEWVGSLSHCASYWNRGWTYHNPSLKSRLTLALDTPKNLVFLKLNSVTAADTATYYCARFGGEVLRYTDWPKPAWVDLWGRGTLVTVSS VL: QSALTQPPSASGSPGQSITISCTGTSNNFVSWYQQHAGKAPKLVIYDVNKRPSGVPDRFSGSKSGNTASLTVSGLQTDDEAVYYCGSLVGNWDVIFGGGTKLTVL | 0.011 | 0.009 | 0.006 | 0.008 | 0.007 | 0.016 | 0.019 | > 50 | > 50 | > 50 | 8.21 | 0.995 | 0.004 | > 50 | > 50 | 0.319 | 0.01 | 0.095 | 0.017 | 0.313 | IC50 (µg/mL), neutralization of pseudovirus [21]: 0.008 µg/mL; Fold IC50 increase relative to wild-type [22]: 0.1 fold; IC50 (µg/mL), neutralization of pseudovirus [23]: > 50 µg/mL
PGT-135 (antibody, V domains shown) VH: QLQMQESGPGLVKPSETLSLSCTVSGDSIRGGEWGDKDYHWGWVRHSAGKGLEWIGSIHWRGTTHYKESLRRRVSMSIDTSRNWFSLRLASVTAADTAVYFCARHRHHDVFMLVPIAGWFDVWGPGVQVTVSS VL: EIVMTQSPDTLSVSPGETVTLSCRASQNINKNLAWYQYKPGQSPRLVIFETYSKIAAFPARFVASGSGTEFTLTINNMQSEDVAVYYCQQYEEWPRTFGQGTKVDIK | > 50 | 0.073 | > 50 | 0.716 | > 50 | > 50 | 0.393 | > 50 | > 50 | > 50 | > 50 | > 50 | > 50 | > 50 | > 50 | 0.137 | 0.145 | 0.062 | 0.592 | 0.062 | IC50 (µg/mL), neutralization of pseudovirus [21]: > 50 µg/mL; Fold IC50 increase relative to wild-type [24]: 3 fold; IC50 (µg/mL), neutralization of pseudovirus [23]: > 50 µg/mL
